Test results published in patent US20210403565A1 (BIOATLA, published 2021).

Biological target: T1, recombinant human CTLA4 extracellular domain (human, UniProt P16410 36-161)
T1 construct: extracellular domain; also called huCTLA-4
T1 sequence (looked up): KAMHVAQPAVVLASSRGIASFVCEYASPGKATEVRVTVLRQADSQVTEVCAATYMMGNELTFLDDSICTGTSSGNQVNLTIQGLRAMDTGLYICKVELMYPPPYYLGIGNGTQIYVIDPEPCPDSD
Assay: ELISA, wells coated with human CTLA4, assay pH 7.4; lot 6972 in Glu buffer, T2W; unit from the axis Log[ng/mL]
Procedure: Both ELISA and FACS analysis were used to measure the binding activity. […] The amount of bound antibodies was quantified using anti-human IgG antibody conjugated to HRP. The absorbance at 450 nm in each measurement was proportional to the amount of antibodies bound. […] EC50 value (in ng/mL) for binding to human CTLA4 was determined by absorbance at 450 nm against antibody concentration with Prism variable slope of four-parameter dose-response curve, which was calculated using the nonlinear fit (variable slope, four parameters) model built into GraphPad Prism software (version 7.03). The buffers tested included His buffer (His), Tris buffer (Tris), Glutamine buffer (Glu) and no buffer.

- EC50: 0.022 µg/mL
B1: BA-087-05-19 (antibody, V domains shown)
VH: EVQLVESGGGLVQPGGSLRLSCAASGFTFSHYTMHWVRQAPGKGLEWVSFISYDGNNKYYADSVKGRFTISRDNSKNTLYLQMNSLRAEDTAVYYCARTGWLGPFDYWGQGTLVTVSS
VL: AIQLTQSPSSLSASVGDRVTITCRASQYVGSSYLAWYLQKPGQSPQLLIYGAFSRATGIPARFSGSGSGTEFTLTISSLQSEDFAVYYCQQDGSSPWTFGQGTKVEIK
notes: Detected with anti-human IgG and a molecular weight of 146 kDa was used in SPR, so it was tested as a whole IgG; also called BA-087-05-019; BA-087-05-19 (# 6972)
